Source: publication PMC6638984, “Increased association between Epstein-Barr virus EBNA2 from type 2 strains and the transcriptional repressor BS69 restricts EBNA2 activity” (PLoS Pathogens, 2019)

B1: type 2 EBNA2 polypeptide T2 EBNA2_(348-422) [Epstein-Barr virus type 2 (AG876)] / BS69 coiled-coil MYND domain (BS69_(CC-MYND), amino acids 480-602) [human] (parent)
chain 1: SMPQLSPVVSLHQGQGPENSPTPGPSTAGPVCRVTPSATPDISPIHEPESSDSEEPPFLFPSDWYPPTLEPAELD
chain 2: DRMKSDHKRETERVVREALEKLRSEMEEEKRQAVNKAVANMQGEMDRKCKQVKEKCKEEFVEEIKKLATQHKQLISQTKKKQWCYNCEEEAMYHCCWNTSYCSIKCQQEHWHAEHKRTCRRKR

Variants of: B1
Assay: ITC
Conditions: with BS69 coiled-coil MYND domain (BS69_(CC-MYND), amino acids 480-602) [human], two-site model, 29 injections of 1.3 μl 0.3 mM EBNA2 polypeptide and 0.1 mM BS69CC-MYND in the cell
[1] = binding event 1 (KD1), parent: 9 nM
[2] = binding event 2 (KD2), parent: 91 nM

Variant	Kd [1]	Kd [2]
chain 1 SMPQLSPVVSLHQGQGPENSPTPGPSTAGPVCRVTPSATPDISPIHEPESSDSEEPPFLFPDDWYPPTLEPAELD	5 nM	94 nM
chain 1 SMPQLSPVVSLHQGQGPENSPTPGPSTAGPVCRVTPSATPDISPIHEPESSDSEEPPFLFPDDWYPATAEAAELD	8 nM	200 nM
